Measured values: patent US20030171557

What was measured:
IkBα C-terminal peptide = molecular target: T1, IkBα C-terminal peptide
T1 chain: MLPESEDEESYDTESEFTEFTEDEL

[1] = molecular target: GST-IkBα protein [GST: P08515]
[2] = molecular target: GST protein [GST: P08515]
Chain of GST protein [GST: P08515] (P08515 whole entry): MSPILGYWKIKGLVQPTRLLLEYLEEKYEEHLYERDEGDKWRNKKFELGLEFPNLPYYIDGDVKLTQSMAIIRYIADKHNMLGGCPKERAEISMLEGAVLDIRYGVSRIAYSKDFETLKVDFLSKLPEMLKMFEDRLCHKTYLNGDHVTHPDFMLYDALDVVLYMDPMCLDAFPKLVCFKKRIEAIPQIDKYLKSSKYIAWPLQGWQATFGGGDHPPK

B1: GST fusion protein with wild VRK1 protein (protein)
chain: MPRVKAAQAGRQSSAKRHLAEQFAVGEIITDMAKKEWKVGLPIGQGGFGCIYLADMNSSESVGSDAPCVVKVEPSDNGPLFTELKFYQRAAKPEQIQKWIRTRKLKYLGVPKYWGSGLHDKNGKSYRFMIMDRFGSDLQKIYEANAKRFSRKTVLQLSLRILDILEYIHEHEYVHGDIKASNLLLNYKNPDQVYLVDYGLAYRYCPEGVHKEYKEDPKRCHDGTIEFTSIDAHNGVAPSRRGDLEILGYCMIQWLTGHLPWEDNLKDPKYVRDSKIRYRENIASLMDKCFPEKNKPGEIAKYMETVKLLDYTEKPLYENLRDILLQGLKAIGSKDDGKLDLSVVENGGLKAKTITKKRKKEIEESKEPGVEDTEWSNTQTEEAIQTRSRTRKRVQK
kinase assay, phosphorylation of substrate ([γ-32P]-ATP, SDS-PAGE) (IkBα C-terminal peptide): Arrows indicate ... phosphorylated IkBα C-terminal peptide (“P”) | kinase assay, phosphorylation of substrate ([γ-32P]-ATP, SDS-PAGE, 10 mM Mg) [1]: wild VRK1 protein phosphorylates casein and GST-IkBα | kinase assay with casein as substrate in the presence of Mg, Mn, Zn or Ca at 2 mM or 10 mM (casein (Sigma)): VRK1 exhibits phosphorylation activity in the presence of all divalent cations except for Zn ... especially strong activity in the presence of Mn | kinase assay, phosphorylation of substrate ([γ-32P]-ATP, SDS-PAGE, 10 mM Mg) (casein (Sigma)): wild VRK1 protein phosphorylates casein and GST-IkBα | kinase assay, phosphorylation of substrate ([γ-32P]-ATP, SDS-PAGE, 10 mM Mg) [2]: GST protein was not phosphorylated by VRK1
